Data: patent US20090208476A1 (published 2009)
Where no end group is shown, it is not given here.

T1: Plasmodium falciparum MSP1-19 (C-terminal fragment of merozoite surface protein 1) (Plasmodium falciparum, UniProt Q8I0U8 1607-1699)
T1 construct: domain: MSP1-19; also called Pf MSP1-19; PfMSP1-19
T1 sequence: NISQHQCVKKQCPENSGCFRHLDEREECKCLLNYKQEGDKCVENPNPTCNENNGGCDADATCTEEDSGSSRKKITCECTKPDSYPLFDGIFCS

T2: DC-SIGN (DC-specific intercellular adhesion molecule 3-grabbing nonintegrin) (UniProt Q9NNX6 62-404, limits assumed)
T2 sequence (looked up): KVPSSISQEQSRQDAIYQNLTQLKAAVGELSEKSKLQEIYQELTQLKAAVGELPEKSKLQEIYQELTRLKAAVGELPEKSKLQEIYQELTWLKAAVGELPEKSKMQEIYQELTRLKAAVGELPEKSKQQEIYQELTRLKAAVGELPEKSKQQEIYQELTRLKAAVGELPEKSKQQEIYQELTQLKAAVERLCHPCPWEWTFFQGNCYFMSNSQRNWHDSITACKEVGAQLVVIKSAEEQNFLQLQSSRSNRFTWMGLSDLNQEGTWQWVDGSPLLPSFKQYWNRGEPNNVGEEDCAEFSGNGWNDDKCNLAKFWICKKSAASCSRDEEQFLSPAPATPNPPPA


Tests used:
[1] = target: T1, Plasmodium falciparum MSP1-19 …; experiment: SPR, MSP1-19 immobilised on CM5 chip
[2] = target: T2, DC-SIGN (DC-specific intercellular …); experiment: SPR, DC-SIGN immobilised on CM5 chip, equilibrium fit Req=Rmax/(1+(Kd/C))
[3] = target: T3, CD4 (UniProt P01730 26-396); experiment: SPR, CD4 immobilised on CM5 chip, equilibrium fit Req=Rmax/(1+(Kd/C))
T3 construct: Bought protein; also called CD4 (Protein Sciences Corp.)

Row | Binder | Kd [1] | Kd [2] | Kd [3]
1 | GST-Azu 36-89 (GST fused to azurin amino acids 36 to 89) (other, also: GST fusion, vector linker residues not given here, also called pGST-azu 36-89 product; not shown: glutathione S-transferase from the commercial vector pGEX-5X) {GST}-PGNLPKNVMGHNWVLSTAADMQGVVTDGMASGLDKDYLKPDDSRVIAHTKLIGS | 20.9 nM |  | 
2 | {GST}-GSGEKDSVTFDVSKLKEGEQYMFFCT (other, also: GST fusion, vector linker residues not given here, not shown: glutathione S-transferase from the commercial vector pGEX-5X) [GST-Azu 88-113 (GST fused to azurin amino acids 88 to 113)] |  | 5.98 nM | 
3 | GST-Azu 36-128 (GST fused to azurin amino acids 36 to 128) (other, The azurin fragment was cloned into the BamHI/EcoRI sites of pGEX-5X; not shown: glutathione S-transferase from the commercial vector pGEX-5X) PGNLPKNVMGHNWVLSTAADMQGVVTDGMASGLDKDYLKPDDSRVIAHTKLIGSGEKDSVTFDVSKLKEGEQYMFFCTFPGHSALMKGTLTLK | 24.5 nM |  | 0.34 nM
